Reference: paper PMC6550530

B1: varA RNA oligonucleotide (ssRNA)
RNA: AAGUGUGGAGAUACAAGUUUGAUUAGUGUUUUCCUUGUAGAUGAUCACGAGCUGGUUCGCACAGGGAUACGACGUAUUAUUGAAGACGUCCGUGGAAUGAAAGUAGCAGGGGAAGCUGAC
B2: atpI RNA oligonucleotide (ssRNA)
RNA: AAAAUUGUAACUUUUUGCGGUGUUUUCAUUGCAAUCAGUUGAUGCCACCGUAUAAUUUUCGCCAAUUUCCCAGUCCGAAAAAGCGGUUCGAGCUGUGGUGAUUACUAGAGGUAAGAAUAC

Tests used:
CsrA [1] = target: T1, CsrA (Vibrio cholerae, UniProt Q9KUH3 1-65); test: EMSA; shift seen at 1.6 nM CsrA, increasing at 8 and 40 nM; LightShift chemiluminescent RNA EMSA kit per manufacturer, 10 ul volume; 12% nondenaturing PAGE; buffer, salt, pH and temperature not stated; conditions: protein: recombinant; tags: N-terminal His-TEV tag removed by TEV protease; chain copies: 2; label: 5' biotin
T1 sequence (Q9KUH3 whole entry): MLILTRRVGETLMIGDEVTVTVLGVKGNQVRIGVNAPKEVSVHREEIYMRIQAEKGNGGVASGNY

CsrA [2] = target: T1, CsrA; test: EMSA; CsrA up to 40 nM; LightShift chemiluminescent RNA EMSA kit per manufacturer, 10 ul volume; 12% nondenaturing PAGE; buffer, salt, pH and temperature not stated; conditions: protein: recombinant; tags: N-terminal His-TEV tag removed by TEV protease; chain copies: 2; label: 5' biotin

Binder	binding result (CsrA [1])	binding result (CsrA [2])
B1	binds	
B2		no binding
